The values that follow are results of earlier work, collected in article PMC3991732.

The series concerns the target ubiquitin (Homo sapiens) (UniProt P0CG48). Put plainly: NMR.

Chain of CD2AP SH3-C (Q9Y5K6 269-330): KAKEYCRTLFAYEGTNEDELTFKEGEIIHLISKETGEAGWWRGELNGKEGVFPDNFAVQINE

Take CD2AP SH3-C (from UniProt Q9Y5K6): the equilibrium dissociation constant (Kd) was 132 µM.
